Laboratory results from paper doi:10.1101/2025.11.04.686334 (2025).

B1: D2 H1-1/H3-1 mAb (antibody, V domains shown)
VH: QVQLVQSGGGLVRPGGSLRLSCAASGFTFSSAWMTWVRQAPGKGLEWVANIKEDGSEKYYVDSVKGRFSISRDNAKNSLYLQISSLRAEDTAVYYCARRFVERLWGQSKPYDAVDIWGQGTMVTVSG
VL: DIQMTQSPSSLSASVGDRVTITCRASQSISNYLNWYQQKPGKAPKLLIYVASNLQSGVPSRFSGSGSGTDFALTISSLQPEDFASYYCQQSYSPVTTFGGGTKVEIK
B2: S1V2-58 mAb (antibody, V domains shown)
VH: QVQLQESGPGLVKPSETLSLTCTVSGGSLSIYYWSWVRQSPGKGLEWIGYISNSGSPTYHPSLKSRVTISLDTSKSQFSLKLTSVTAADTALYFCARGVLEQLAPDFDSYYYGMNVWGQGTTVTVSG
VL: DIQMTQSPSSVSASLGDRVTLTCRASQPIRSYLNWYQHKPGLAPKLLVYAVSNLQSGVPSRFSGSGSGTDFTLTVSSLQPEDFATYYCQQSYSTPYTFGQGTRLEIK
B3: FluA-20 mAb (antibody, V domains shown)
VH: QVQLEESGPGLVKPSETLSLTCSVSGVSVTSDIYYWTWIRQPPGKGLEWIGYIFYNGDTNYNPSLKSRVTMSIDTSKNEFSLRLTSVTAADTAVYFCARGTEDLGYCSSGSCPNHWGQGTLVTVSS
VL: DIVMTQSPSSLSASIGDRVTITCRPSQNIRSFLNWFQHKPGKAPKLLIYAASNLQSGVPSRFSGSGSGTEFTLTIRSLQPEDFATYYCQQSYNTPPTFGQGTKVEIK

Columns and labels:
Test in all cases: BLI
[1] = molecular target: HA220-4
[2] = molecular target: HA220-M4T
[3] = molecular target: HA220-1 (human, UniProt Q9NZ52 16-146)

Binder | Kd [1] [nM] | Kd [2] [nM] | koff [2] [s⁻¹] | Kd [3] [nM]
B1 | 65 | 2.55 | 0.00017 | 
B2 | 178 | 10.7 | 0.00043 | 
B3 | 110 | 0.253 |  | > 12000
